Test results as given in patent US20110098217A1 (INDIANA UNIVERSITY RESEARCH AND TECHNOLOGY, published 2011).
Numbered stars: 1 amine (or outer) side, 2 acyl side, 3 side chain; on linkers, the order of the positions; unused ones are H or OH. Bridge positions count the residues as written; N and C are the ends. Square brackets hold non-standard residues; d marks the D form. Primed or numbered codes have the meaning given here. Side chains are listed from the residue outwards. Ends that are not written are not given here. CSA‑1 = Cys(S-CH2COOH), S-carboxymethyl-L-cysteine, O=C([C@H](CSCC(=O)[*:3])N[*:1])[*:2]; PEG 20 kDa″ = 20 kDa polyethylene glycol (PEG); PEG 20 kDa = 20 kDa polyethylene glycol; PhLac = O=C(O)[C@@H](O)Cc1ccccc1; Aad = N[C@@H](CCCC(=O)O)C(=O)O; Mpa = O=C(O)CCS

B1: [Lys^9]Glucagon(aa6-29)-NH2 (peptide)
peptide: FTSKYSKYLDSRRAQDFVQWLMNT-NH2
notes: also called [K^9]Glucagon(aa6-29)-NH2; peptide no; 16
B2: [(CSA-1)^9]Glucagon(aa6-29)-NH2 (peptide)
peptide: FTS[CSA‑1]YSKYLDSRRAQDFVQWLMNT-NH2
modifications: N-terminus assumed
SMILES: CSCC[C@H](NC(=O)[C@H](CC(C)C)NC(=O)[C@H](Cc1c[nH]c2ccccc12)NC(=O)[C@H](CCC(N)=O)NC(=O)[C@@H](NC(=O)[C@H](Cc1ccccc1)NC(=O)[C@H](CC(=O)O)NC(=O)[C@H](CCC(N)=O)NC(=O)[C@H](C)NC(=O)[C@H](CCCNC(=N)N)NC(=O)[C@H](CCCNC(=N)N)NC(=O)[C@H](CO)NC(=O)[C@H](CC(=O)O)NC(=O)[C@H](CC(C)C)NC(=O)[C@H](Cc1ccc(O)cc1)NC(=O)[C@H](CCCCN)NC(=O)[C@H](CO)NC(=O)[C@H](Cc1ccc(O)cc1)NC(=O)[C@H](CSCC(=O)O)NC(=O)[C@H](CO)NC(=O)[C@@H](NC(=O)[C@@H](N)Cc1ccccc1)[C@@H](C)O)C(C)C)C(=O)N[C@@H](CC(N)=O)C(=O)N[C@H](C(N)=O)[C@@H](C)O
notes: also called [C^9(SCH2COOH)]Glucagon(aa6-29)-NH2; peptide no; 13
B3: [hGlu^9]Glucagon(aa6-29)-NH2 (peptide)
peptide: FTS[Aad]YSKYLDSRRAQDFVQWLMNT-NH2
modifications: N-terminus assumed
SMILES: CSCC[C@H](NC(=O)[C@H](CC(C)C)NC(=O)[C@H](Cc1c[nH]c2ccccc12)NC(=O)[C@H](CCC(N)=O)NC(=O)[C@@H](NC(=O)[C@H](Cc1ccccc1)NC(=O)[C@H](CC(=O)O)NC(=O)[C@H](CCC(N)=O)NC(=O)[C@H](C)NC(=O)[C@H](CCCNC(=N)N)NC(=O)[C@H](CCCNC(=N)N)NC(=O)[C@H](CO)NC(=O)[C@H](CC(=O)O)NC(=O)[C@H](CC(C)C)NC(=O)[C@H](Cc1ccc(O)cc1)NC(=O)[C@H](CCCCN)NC(=O)[C@H](CO)NC(=O)[C@H](Cc1ccc(O)cc1)NC(=O)[C@H](CCCC(=O)O)NC(=O)[C@H](CO)NC(=O)[C@@H](NC(=O)[C@@H](N)Cc1ccccc1)[C@@H](C)O)C(C)C)C(=O)N[C@@H](CC(N)=O)C(=O)N[C@H](C(N)=O)[C@@H](C)O
notes: also called [hE^9]Glucagon(aa6-29)-NH2; peptide no; 12
B4: [H1A2E3, E9, E16K20(Lactam), GLP(23-32)]G(1-29) (peptide)
peptide: HAEGTFTSEYSKYLDEQAAKEFIAWLMDT-NH2
modifications: lactam 16-20; N-terminus assumed
SMILES: CC[C@H](C)[C@H](NC(=O)[C@H](Cc1ccccc1)NC(=O)[C@H](CCC(=O)O)NC(=O)[C@@H]1CCCCNC(=O)CC[C@H](NC(=O)[C@H](CC(=O)O)NC(=O)[C@H](CC(C)C)NC(=O)[C@H](Cc2ccc(O)cc2)NC(=O)[C@H](CCCCN)NC(=O)[C@H](CO)NC(=O)[C@H](Cc2ccc(O)cc2)NC(=O)[C@H](CCC(=O)O)NC(=O)[C@H](CO)NC(=O)[C@@H](NC(=O)[C@H](Cc2ccccc2)NC(=O)[C@@H](NC(=O)CNC(=O)[C@H](CCC(=O)O)NC(=O)[C@H](C)NC(=O)[C@@H](N)Cc2c[nH]cn2)[C@@H](C)O)[C@@H](C)O)C(=O)N[C@@H](CCC(N)=O)C(=O)N[C@@H](C)C(=O)N[C@@H](C)C(=O)N1)C(=O)N[C@@H](C)C(=O)N[C@@H](Cc1c[nH]c2ccccc12)C(=O)N[C@@H](CC(C)C)C(=O)N[C@@H](CCSC)C(=O)N[C@@H](CC(=O)O)C(=O)N[C@H](C(N)=O)[C@@H](C)O
B5: [A2E3, E9, E16K20(Lactam), GLP(23-32)]G(2-29) (peptide)
peptide: AEGTFTSEYSKYLDEQAAKEFIAWLMDT-NH2
modifications: lactam 15-19; N-terminus assumed
SMILES: CC[C@H](C)[C@H](NC(=O)[C@H](Cc1ccccc1)NC(=O)[C@H](CCC(=O)O)NC(=O)[C@@H]1CCCCNC(=O)CC[C@H](NC(=O)[C@H](CC(=O)O)NC(=O)[C@H](CC(C)C)NC(=O)[C@H](Cc2ccc(O)cc2)NC(=O)[C@H](CCCCN)NC(=O)[C@H](CO)NC(=O)[C@H](Cc2ccc(O)cc2)NC(=O)[C@H](CCC(=O)O)NC(=O)[C@H](CO)NC(=O)[C@@H](NC(=O)[C@H](Cc2ccccc2)NC(=O)[C@@H](NC(=O)CNC(=O)[C@H](CCC(=O)O)NC(=O)[C@H](C)N)[C@@H](C)O)[C@@H](C)O)C(=O)N[C@@H](CCC(N)=O)C(=O)N[C@@H](C)C(=O)N[C@@H](C)C(=O)N1)C(=O)N[C@@H](C)C(=O)N[C@@H](Cc1c[nH]c2ccccc12)C(=O)N[C@@H](CC(C)C)C(=O)N[C@@H](CCSC)C(=O)N[C@@H](CC(=O)O)C(=O)N[C@H](C(N)=O)[C@@H](C)O

target: T1, human glucagon receptor (human, UniProt P47871 26-477); experiment: SPA competition vs 125I-glucagon, receptor membranes
T1 construct: whole, on cells; cAMP assay: transfected HEK293 cells
T1 sequence (P47871 26-477): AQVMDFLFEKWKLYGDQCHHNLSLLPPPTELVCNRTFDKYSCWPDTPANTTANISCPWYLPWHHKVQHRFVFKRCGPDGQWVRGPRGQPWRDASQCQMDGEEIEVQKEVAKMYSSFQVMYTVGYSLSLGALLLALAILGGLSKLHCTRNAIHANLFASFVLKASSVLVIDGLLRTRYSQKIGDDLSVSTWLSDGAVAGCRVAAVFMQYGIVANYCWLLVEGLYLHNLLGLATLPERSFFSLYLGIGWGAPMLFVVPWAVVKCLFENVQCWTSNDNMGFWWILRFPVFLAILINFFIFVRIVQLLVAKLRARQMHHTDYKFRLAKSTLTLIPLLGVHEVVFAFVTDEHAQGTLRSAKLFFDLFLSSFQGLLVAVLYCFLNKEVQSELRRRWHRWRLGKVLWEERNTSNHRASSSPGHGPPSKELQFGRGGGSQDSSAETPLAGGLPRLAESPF

Binder | IC50 [nM]
FTSDYSKYLDSRRAQDFVQWLMNT-NH2 (also called peptide no; 15) [Glucagon(aa6-29)-NH2] | 1890
B1 | 5780
B2 | 107
B3 | 163
LTFTSEYSKYLDSRRAQDFVQWLMNT-NH2 (also called peptide no) [[Leu^4, Glu^9]Glucagon(aa4-29)-NH2] | 36.4

target: T1, human glucagon receptor; experiment: cell-based or functional assay

Binder | cAMP (I/A)50 inhibition index | cAMP pA2
FTSDYSKYLDSRRAQDFVQWLMNT-NH2 (also called peptide no; 15) [Glucagon(aa6-29)-NH2] | 1730 | 6.94
B1 | 1990 | 6.58
B2 | 506 | 6.68
B3 | 2360 | 6.27

target: T1, human glucagon receptor; experiment: SPA competition vs 125I-glucagon, receptor membranes; remark: another data set of the same source

Binder | IC50 [nM]
FTSDYSKYLDSRRAQDFVQWLMNT-NH2 (also called peptide no; 15) [Glucagon(aa6-29)-NH2] | 1670
B1 | 3240
B2 | 107
B3 | 163

target: T1, human glucagon receptor; experiment: cell-based or functional assay; remark: another data set of the same source

Binder | cAMP IC50 [nM] | cAMP pA2
FTSDYSKYLDSRRAQDFVQWLMNT-NH2 (also called peptide no; 15) [Glucagon(aa6-29)-NH2] | 346 | 6.94
B1 | 398 | 6.58
B2 | 101 | 6.68
B3 | 472 | 6.27

target: T1, human glucagon receptor; experiment: cell-based or functional assay; remark: another data set of the same source

Binder | Glucagon antagonism IC50 (inhibit 0.2-0.8 nM glucagon) [nM]
[PhLac]TSDYSKYLDERRAKDFVQWLMDTGPSSGAPPPSC(PEG 20 kDa″)-NH2 (lactam 11-15) [[PLA6, E16K20(Lactam), D28,CEX-C40(20 kDa)]G(6-40)] | 350 to 500
[PhLac]TSDYSKYLDERRAKDFVK([3‑aminoprop‑1‑ynyl‑benzoic acid-Mpa-PEG 20 kDa])WLMDT-NH2 (lactam 11-15) [[PLA6,E16K20(Lactam), K24(rigid-S-20 kDa)]G(6-29)] | 393 to 620
[PhLac]TSDYSKYLDERRAQDFVC(PEG 20 kDa)WLMDT-NH2 (lactam 7-11) [[PLA6, K12E16(lactam), C24(20 kDa), D28]G(6-29)] | 628
[PhLac]TSDYSKYLDERRAKDFVQWLMDTGPGPGPGPGPC(PEG 20 kDa″)-NH2 (lactam 11-15) [[PLA6, E16K20(Lactam),D28,GP-C40(20 kDa)]G(6-40)] | 423
[PhLac]TSDYSKYLDERRAKDFVQWLMDGGPSSGAPPPSC(PEG 20 kDa″)-NH2 (lactam 11-15) [[PLA6, E16K20(Lactam),D28,G29, CEX-C40(20 kDa)]G(6-40)] | 335
[PhLac]TSDYSKYLDERRAKDFVK([Mpa-PEG 20 kDa″])WLMDT-NH2 (lactam 11-15) [[PLA6, E16K20(Lactam), K24(COCH2CH2S-20 kDa)] G(6-29)] | 300 to 400

target: T2, human GLP-1 receptor (human, UniProt P43220 24-463); experiment: cell-based or functional assay

Binder | GLP-1 agonism EC50 [nM]
[PhLac]TSDYSKYLDERRAKDFVQWLMDTGPSSGAPPPSC(PEG 20 kDa″)-NH2 (lactam 11-15) [[PLA6, E16K20(Lactam), D28,CEX-C40(20 kDa)]G(6-40)] | 75 to 100
[PhLac]TSDYSKYLDERRAKDFVK([3‑aminoprop‑1‑ynyl‑benzoic acid-Mpa-PEG 20 kDa])WLMDT-NH2 (lactam 11-15) [[PLA6,E16K20(Lactam), K24(rigid-S-20 kDa)]G(6-29)] | 1360 to 2680
[PhLac]TSDYSKYLDERRAQDFVC(PEG 20 kDa)WLMDT-NH2 (lactam 7-11) [[PLA6, K12E16(lactam), C24(20 kDa), D28]G(6-29)] | 550 to 753
[PhLac]TSDYSKYLDERRAKDFVQWLMDTGPGPGPGPGPC(PEG 20 kDa″)-NH2 (lactam 11-15) [[PLA6, E16K20(Lactam),D28,GP-C40(20 kDa)]G(6-40)] | 43.6
[PhLac]TSDYSKYLDERRAKDFVQWLMDGGPSSGAPPPSC(PEG 20 kDa″)-NH2 (lactam 11-15) [[PLA6, E16K20(Lactam),D28,G29, CEX-C40(20 kDa)]G(6-40)] | 180
[PhLac]TSDYSKYLDERRAKDFVK([Mpa-PEG 20 kDa″])WLMDT-NH2 (lactam 11-15) [[PLA6, E16K20(Lactam), K24(COCH2CH2S-20 kDa)] G(6-29)] | 16 to 20

target: T1, human glucagon receptor; experiment: cell-based or functional assay; remark: another data set of the same source

Binder | Glucagon antagonism IC50 (inhibit 0.2-0.8 nM glucagon) [nM]
B4 | 2150
B5 | 423

target: T2, human GLP-1 receptor; experiment: cell-based or functional assay; remark: another data set of the same source

Binder | GLP-1 agonism EC50 [nM]
B4 | 0.017
B5 | 9.8
